Common to all, as to conditions: Enterobacter cloacae
Substrate in series [1]: CO/N=C(\C(=O)N[C@@H]1C(=O)N2C(C(=O)[O-])=C(C[N+]3(C)CCCC3)CS[C@H]12)c1csc(N)n1
Description: (§1) Ratio of Kcat to Km of Enterobacter cloacae 4092 AmpC (E2) assessed as drug hydrolysis by spectrophotometry
Substrate in series [2]: O=C(Cc1cccs1)N[C@@H]1C(=O)N2C(C(=O)O)=C(/C=C/c3ccc([N+](=O)[O-])cc3[N+](=O)[O-])CS[C@H]12
Description: as §1
Substrate in series [3]: O=C(Cc1cccs1)N[C@@H]1C(=O)N2C(C(=O)[O-])=C(C[n+]3ccccc3)CS[C@H]12
Description: as §1
Substrate in series [4]: CC(C)(O/N=C(\C(=O)N[C@@H]1C(=O)N2C(C(=O)[O-])=C(C[n+]3ccccc3)CS[C@H]12)c1csc(N)n1)C(=O)O
Description: (§2) Ratio of Kcat to Km of Enterobacter cloacae 908R AmpC assessed as drug hydrolysis by spectrophotometry
Substrate in series [5]: CC1(C)S[C@@H]2[C@H](NC(=O)Cc3ccccc3)C(=O)N2[C@H]1C(=O)O
Description: as §2
Substrate in series [6]: CO/N=C(\C(=O)N[C@@H]1C(=O)N2C(C(=O)[O-])=C(C[N+]3(C)CCCC3)CS[C@H]12)c1csc(N)n1
This is another data set of the same source.
Description: as §2

Substrate in series [7]: Nc1nc(/C(=N/O)C(=O)N[C@@H]2C(=O)N3C(C(=O)O)=C(/C=C4\CCN([C@@H]5CCNC5)C4=O)CS[C@H]23)ns1
Description: as §2
Substrate in series [8]: O=C(Cc1cccs1)N[C@@H]1C(=O)N2C(C(=O)[O-])=C(C[n+]3ccccc3)CS[C@H]12
Description: as §2
This is another data set of the same source.

This passage reports kcat/Km results from ChEMBL document CHEMBL1143427, “Interactions of ceftobiprole with beta-lactamases from molecular classes A to D” (Antimicrob Agents Chemother, 2007).

The kcat/Km is the turnover number divided by the Michaelis constant.

B1: Beta-lactamase (Enterobacter cloacae), P05364 (protein)
chain: MMRKSLCCALLLGISCSALATPVSEKQLAEVVANTITPLMKAQSVPGMAVAVIYQGKPHYYTFGKADIAANKPVTPQTLFELGSISKTFTGVLGGDAIARGEISLDDAVTRYWPQLTGKQWQGIRMLDLATYTAGGLPLQVPDEVTDNASLLRFYQNWQPQWKPGTTRLYANASIGLFGALAVKPSGMPYEQAMTTRVLKPLKLDHTWINVPKAEEAHYAWGYRDGKAVRVSPGMLDAQAYGVKTNVQDMANWVMANMAPENVADASLKQGIALAQSRYWRIGSMYQGLGWEMLNWPVEANTVVEGSDSKVALAPLPVAEVNPPAPPVKASWVHKTGSTGGFGSYVAFIPEKQIGIVMLANTSYPNPARVEAAYHILEALQ
B1: the kcat/Km was below 33 M⁻¹ s⁻¹ in series [1]; 1e+07 M⁻¹ s⁻¹ in series [2]; 1.5e+06 M⁻¹ s⁻¹ in series [3]; 660000 M⁻¹ s⁻¹ in series [4]; 8.8e+06 M⁻¹ s⁻¹ in series [5]; 75000 M⁻¹ s⁻¹ in series [6]. Further, the catalytic efficiency (kcat/Km) in series [7] was found to be 38000 M⁻¹ s⁻¹; in series [8], 8.9e+06 M⁻¹ s⁻¹.
